# Source: article PMC11630628 (Molecular Plant, 2024)
# B1: SERINE-RICH ENDOGENOUS PEPTIDE 10 (peptide)
# peptide: ALPYHHELFLGRKRMNYYKPNSAIGTPSSTSDHAPGSNGRKLMSIYRPNGDIFTGPSGSGHGGGRTPAP
# notes: processed from PROSCOOP10; synthesized by GenScript
# What was measured:
# [1] = system: bak1-5 serk4 double mutant; set-up: method as in Hou et al., 2021b; conditions: ref Hou et al., 2021b; cited from earlier work
# PROSCOOP12 transcript = test: qPCR expression of PROSCOOP12 in detached leaves; assay type: cell-based, Arabidopsis thaliana
# From the text: (§1) Total RNA was isolated from Arabidopsis leaves with the RNAiso Plus (TAKARA) and reverse transcribed using the PrimeScript RT reagent Kit (TAKARA). qPCR reactions were implemented in an Applied Biosystems 7500 Real-Time PCR system with the SYBR Premix Ex Taq II (TAKARA). ACTIN was used as the reference gene for qPCR analyses. The primers used for qPCR are listed in Supplemental Table 2.
# [2] = system: 6× His-tagged ectodomains of MIK2; test: Competitive pull-down assay; assay type: binding, Arabidopsis thaliana; conditions: 50 nM MIK2 ectodomain, 250 nM biotinylated SCOOP10 or SCOOP12, 1 h, then increasing concentrations of the other peptide; anti-His Western blot, densitometry; three replicates
# Procedure: (§2) Subsequently, 30 μL streptavidin magnetic beads (New England Biolabs) were added to each sample and incubated for 1 h at 4°C, followed by washing 5–6 times with 1.0 mL of interactive buffer. The proteins bound to the beads were then eluted using interactive buffer containing 5× SDS loading buffer, and western blot analysis was conducted as previously described ([Lan et al., 2023]). In the competitive binding assay, 50 nM purified MIK2 protein featuring a His-tag at its C-terminal was initially mixed with 250 nM of biotinylated SCOOP10. […] After thorough mixing, the beads underwent 5–6 washes to meticulously remove any residual proteins, and then the preparations were subjected to detailed analysis via western blotting to probe the interactions.
# bak1 mutants = system: bak1 mutants; set-up: method as in Hou et al., 2021b; conditions: ref Hou et al., 2021b; cited from earlier work
# [3] = system: Arabidopsis WT intact rosette leaves; test: Exogenous peptide application on intact rosette leaves; assay type: in vivo, Arabidopsis thaliana; conditions: SCOOP10 1 μM sprayed, vs mock
# Procedure: (§3) A. thaliana ecotype Columbia-0 and mutants used in this study include mik2-1 (SALK_06269), mik2-2 (CS419958), proscoop10-1 (SALK_080439), and proscoop10-2 (SALK_027949), which were obtained from ABRC. The proscoop12 CRISPR-Cas9-generated mutants were kindly provided by Dr. Elia Stahi at the University of Lausanne, Switzerland ([Stahl et al., 2022]). Imbibed seeds were incubated at 4°C in a refrigerator for 2 days before sowing on the soil mix (3 parts commercial soil: 1 parts vermiculite) and grown under the long-day condition (16 h light/8 h dark) in a growth chamber with 150 μmol m^−2 s^−1 light intensity. For the senescence phenotyping of detached leaves, the fifth and sixth rosette leaves of 25-day-old plants were removed and placed in Petri dishes with the adaxial side facing up. The Petri dishes were sealed with parafilm to prevent water loss, and the leaves were incubated with deionized water. The application of exogenous peptides followed the previously established method ([Zhang et al., 2022a], [2022b]). For dark-induced leaf senescence assays, detached rosette leaves were incubated in deionized water placed in the dark condition for 6 days. At least three biological replicates were included for each assay. For senescence phenotype analysis under normal growth conditions, homozygous plants were grown alongside Col-0. All data including plant phenotypes and gene expression presented in this study were analyzed with GraphPad Prism 9, and at least three biological replicates were included in each experiment. Chl content, photochemical efficiency of PSII (Fv/Fm ratio), and ion leakage were determined as previously described ([Zhang et al., 2020], [2022b]; [Guo et al., 2022]).
# Figure S4. […]
# after 1 to 10 days of treatments. Three independent experiments were performed with 8 leaves measured for each […]
# determined by one-way ANOVA (α = 0.05) followed by Bonferroni post-hoc test for multiple comparisons (*P ≤ 0.05, ***P […]
# indicate statistically significant differences compared to WT, as determined by one-way ANOVA analysis (α = 0.05) […]
# [4] = system: Arabidopsis mik2 mutant detached rosette leaves; test: Detached leaf senescence assay, mik2 mutants; assay type: in vivo, Arabidopsis thaliana; conditions: SCOOP10 1 μM (Figures 3A–3C)
# Procedure: as §3, with “For dark-induced leaf senescence assays, detached rosette leaves were incubated in deionized water placed in the dark condition for 6 days. At least three biological replicates were included for each assay. For senescence phenotype analysis under normal growth conditions, homozygous plants were grown alongside Col-0.” left out
# [5] = system: purified His-tagged MIK2 ectodomain; test: Pull-down assay with biotinylated peptides; assay type: binding, Arabidopsis thaliana; conditions: biotinylated peptide, streptavidin magnetic beads, 20 mM Tris-HCl pH 7.3, 150 mM NaCl, 0.1% NP-40, anti-His Western blot, repeated three times, conclusion also rests on MST
# Procedure: as §2
# [6] = system: Arabidopsis WT (Col-0) detached rosette leaves; test: Detached leaf senescence assay, WT; assay type: in vivo, Arabidopsis thaliana
# Procedure: as §3, with “For dark-induced leaf senescence assays, detached rosette leaves were incubated in deionized water placed in the dark condition for 6 days. At least three biological replicates were included for each assay. For senescence phenotype analysis under normal growth conditions, homozygous plants were grown alongside Col-0.” left out
# PROSCOOP10 transcript = test: qPCR expression of PROSCOOP10 in detached leaves; assay type: cell-based, Arabidopsis thaliana
# From the text: as §1
molecule,measurement,setting,value
B1,root growth inhibition in bak1-5 serk4 (published),[1],milder phenotype in response to SCOOP10 treatment
same,PROSCOOP12 expression,"PROSCOOP12 transcript; 1 μM peptide, no pretreatment, detached leaves, vs mock, qPCR",induce the expression of PROSCOOP12 within 1 h
same,"PROSCOOP12 expression, SCOOP10 pretreatment then SCOOP10","PROSCOOP12 transcript; pretreated with SCOOP10 24 h, treated with SCOOP10 for 1, 5 and 10 h",even stronger
same,competition for MIK2 binding (pull-down signal),[2],the SCOOP12-MIK2 complex resulted in a stable interaction with SCOOP10 application at the concentrations tested
same,"sensitivity of bak1 mutants (root growth inhibition, published)",bak1 mutants,sensitive to SCOOP10 application
same,"Chl content, intact rosette leaves","[3]; 1 to 10 days, WT, sixth rosette leaves",reduced Chl content
same,"leaf senescence, intact rosette leaves","[3]; 10 days, 4-week-old WT, three experiments, 8 leaves each",significantly accelerated leaf senescence
same,"Fv/Fm ratio, intact rosette leaves",[3]; WT,reduced Chl content and Fv/Fm ratio
same,"senescence induction, WT compared with mik2 mutants",[4],More profound senescence was induced by SCOOP10 treatments in WT than in mik2 mutant plants
same,interaction with MIK2 ectodomain,[5],SCOOP10 interacts with MIK2
same,"senescence phenotype, SCOOP10 alone (sequential assay control)","[6]; SCOOP10 alone, Figures 5D and 5E, n = 8 leaves per replicate",significant senescence phenotypes
same,"leaf senescence phenotype, detached leaves","[6]; exogenous peptide, SCOOP10 1 μM for 5 days (Figure 2A, 2B; Supplemental Figure 3)",premature senescence phenotype in detached leaves
same,PROSCOOP10 expression,"PROSCOOP10 transcript; 1 μM peptide, detached leaves, vs mock, qPCR",reduced expression
same,"PROSCOOP10 expression, SCOOP10/SCOOP10-pretreated leaves","PROSCOOP10 transcript; reduction in SCOOP10/SCOOP10-pretreated leaves vs mock, 1 μM",more pronounced
